Here are results for one molecule from patent US20120252054A1, “SYSTEM FOR TRANSFORMATION OF THE CHLOROPLAST GENOME OF SCENEDESMUS SP. AND DUNALIELLA SP” (priority 2009, published 2012).

The nature of this assay: Endoxylanase enzyme function assay on clarified lysates. The format is biochemical, T. reesei. Particulars: clarified lysates of S. dimorphus transformants (parent 2 and 4), normalized for total soluble protein, pH 4.8, 42 degrees Celsius. Here is the method: To determine if the endoxylanase produced by transformed algae cells was functional, endoxylanase activity was tested using an enzyme function assay. Briefly, algae cells were collected from TAP agar medium and suspended in BugBuster solution (Novagen). Cells were lysed by bead beating using zirconium beads. Cell lysates were clarified by centrifugation and the supernatants were normalized for total soluble protein (Coomassie Plus Protein Assay Kit, Thermo Scientific). 100 μL of each sample was mixed with 10 μL of 10× xylanase assay buffer (1M sodium acetate, pH=4.8) and 50 μL of the sample mixture was added to one well in a black 96-well plate. EnzCheck Ultra Xylanase substrate (Invitrogen) was dissolved at a concentration of 50 ug/ml in 100 mM sodium acetate pH 4.8, and 50 μL of substrate was added to each well of the microplate. The fluorescent signal was measured in a SpectraMax M2 microplate reader (Molecular Devices), with an excitation wavelength of 360 nm and an emission wavelength of 460 nm, without a cutoff filter and with the plate chamber set to 42 degrees Celsius. The fluorescence signal was measured for 15 minutes, and the enzyme velocity was calculated with Softmax Pro v5.2 (Molecular Devices). Enzyme velocities were recorded as RFU/minute. Enzyme specific activities were calculated as milliRFU per minute per μg of total soluble protein.

B1: endoxylanse: endoxylanase from T. reesei (BD11) expressed in the S. dimorphus chloroplast (protein)
chain: MVPVSFTSLLAASPPSRASCRPAAEVESVAVEKRQTIQPGTGYNNGYFYSYWNDGHGGVTYTNGPGGQFSVNWSNSGNFVGGKGWQPGTKNKVINFSGSYNPNGNSYLSVYGWSRNPLIEYYIVENFGTYNPSTGATKLGEVTSDGSVYDIYRTQRVNQPSIIGTATFYQYWSVRRNHRSSGSVNTANHFNAWAQQGLTLGTMDYQIVAVEGYFSSGSASITVSGTGDYKDDDDKSGENLYFQGHNHRHKHTG
modifications: codon optimized endoxylanase from T. reesei
notes: endoxylanase from T. reesei (BD11) expressed in the S. dimorphus chloroplast
Consider B1, for which the “endoxylanase activity in transformants relative to wild type cells” value is “at least 4 fold”.
